Experiments:
[1] = molecular target: Myosin11 (smooth muscle myosin heavy chain, myosin II isoform) (mouse (endogenous in retina)) (UniProt O08638)
[2] = molecular target: Myosin11 (smooth muscle myosin heavy chain, myosin II isoform) (mouse (endogenous in retina)) (UniProt O08638); test: FRET or BRET

UniProt O08638, sequence (O08638 whole entry, canonical isoform): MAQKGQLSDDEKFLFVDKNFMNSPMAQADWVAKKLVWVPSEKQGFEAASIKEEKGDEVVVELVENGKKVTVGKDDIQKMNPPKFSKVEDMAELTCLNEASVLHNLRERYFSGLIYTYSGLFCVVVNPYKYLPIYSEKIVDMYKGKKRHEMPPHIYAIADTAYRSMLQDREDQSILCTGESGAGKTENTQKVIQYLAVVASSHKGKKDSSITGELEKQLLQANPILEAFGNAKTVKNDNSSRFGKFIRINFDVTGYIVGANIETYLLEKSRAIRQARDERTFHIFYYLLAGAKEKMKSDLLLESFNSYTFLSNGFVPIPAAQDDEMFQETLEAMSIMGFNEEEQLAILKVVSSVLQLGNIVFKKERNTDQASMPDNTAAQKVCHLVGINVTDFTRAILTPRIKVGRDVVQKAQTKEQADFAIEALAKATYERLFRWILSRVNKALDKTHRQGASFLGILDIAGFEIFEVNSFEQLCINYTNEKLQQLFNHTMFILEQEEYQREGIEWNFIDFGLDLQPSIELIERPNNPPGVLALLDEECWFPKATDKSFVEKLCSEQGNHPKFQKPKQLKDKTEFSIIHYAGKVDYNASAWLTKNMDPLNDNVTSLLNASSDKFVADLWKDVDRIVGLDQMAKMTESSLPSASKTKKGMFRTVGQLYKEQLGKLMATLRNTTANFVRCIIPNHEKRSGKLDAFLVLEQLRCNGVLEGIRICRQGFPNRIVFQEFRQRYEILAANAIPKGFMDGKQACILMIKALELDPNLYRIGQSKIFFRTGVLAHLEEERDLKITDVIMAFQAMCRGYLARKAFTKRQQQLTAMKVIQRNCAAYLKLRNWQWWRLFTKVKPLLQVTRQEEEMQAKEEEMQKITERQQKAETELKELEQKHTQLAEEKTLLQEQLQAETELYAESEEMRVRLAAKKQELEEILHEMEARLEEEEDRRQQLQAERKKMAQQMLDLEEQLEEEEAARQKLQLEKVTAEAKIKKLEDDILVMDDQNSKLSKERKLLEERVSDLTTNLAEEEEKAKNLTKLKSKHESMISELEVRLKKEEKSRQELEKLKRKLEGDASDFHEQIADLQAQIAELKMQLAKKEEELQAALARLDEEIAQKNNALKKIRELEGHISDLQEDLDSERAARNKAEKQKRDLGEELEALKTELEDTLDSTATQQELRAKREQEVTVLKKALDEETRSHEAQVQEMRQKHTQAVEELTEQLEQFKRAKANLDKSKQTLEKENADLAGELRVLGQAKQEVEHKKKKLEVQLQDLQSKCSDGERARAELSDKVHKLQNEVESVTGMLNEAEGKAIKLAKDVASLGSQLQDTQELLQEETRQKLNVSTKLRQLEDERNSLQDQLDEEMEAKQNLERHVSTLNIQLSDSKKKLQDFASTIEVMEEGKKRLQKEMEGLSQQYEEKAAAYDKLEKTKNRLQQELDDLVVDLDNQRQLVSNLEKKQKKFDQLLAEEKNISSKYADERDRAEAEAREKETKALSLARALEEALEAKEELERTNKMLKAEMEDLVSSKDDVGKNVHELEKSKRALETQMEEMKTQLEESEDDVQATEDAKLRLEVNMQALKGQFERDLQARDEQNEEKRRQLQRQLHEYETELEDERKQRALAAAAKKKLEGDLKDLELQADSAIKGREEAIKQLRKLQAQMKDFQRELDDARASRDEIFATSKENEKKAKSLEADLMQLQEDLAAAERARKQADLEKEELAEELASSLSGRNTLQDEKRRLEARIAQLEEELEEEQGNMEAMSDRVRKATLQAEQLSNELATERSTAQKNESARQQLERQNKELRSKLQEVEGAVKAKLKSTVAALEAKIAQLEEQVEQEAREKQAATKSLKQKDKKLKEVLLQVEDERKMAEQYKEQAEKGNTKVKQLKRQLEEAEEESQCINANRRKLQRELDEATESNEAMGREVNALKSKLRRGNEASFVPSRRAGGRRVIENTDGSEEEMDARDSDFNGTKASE

JNDR after noradrenaline, mesh pericytes (orders 3-4), blebbistatin vs. vehicle [1]: 0.81
FRET efficiency [2]: > 0.8
Substance: α-smooth muscle actin (α-SMA) (from UniProt P62737 1-377) (natural protein)
